Results from the supplement of paper PMC10567573.

B1: SLC35F2 (parent)
chain: QYLAERYKVNTPMLQSFINYCLLF
B2: RAB40B (parent)
chain: YSLTTSSTHKRSSLRKVKLVRPPQ

Variants of: B1
Experiment: protein stability index of a GFP-peptide fusion (GPS, HEK-293T) (PSI 1-6); higher = more stable
Conditions: c terminus: a fixed tail appended
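Also: lentivirally expressed fusions sorted by FACS into six bins by GFP to DsRed ratio, PSI derived from sequencing read proportions per bin multiplied by bin number.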

| Variant | protein stability index |
| --- | --- |
| QYLAERYKVNTPMLQSFINYCLLS [F24S] | 1.81 |
| QYLAERYKVNTPMLQSFINYCLLC [F24C] | 1.99 |
| QYLAERYKVNTPMLQSFINYCLLL [F24L] | 2.95 |
| QYLAERYKVNTPMLQSFINYCLLT [F24T] | 2.69 |
| QYLAERYKVNTPMLQSFINYCLLD [F24D] | 2.21 |
| QYLAERYKVNTPMLQSFINYCLLR [F24R] | 2.88 |
| QYLAERYKVNTPMLQSFINYCLLE [F24E] | 2.28 |
| QYLAERYKVNTPMLQSFINYCLLY [F24Y] | 3.33 |
| QYLAERYKVNTPMLQSFINYCLLG [F24G] | 2.48 |
| QYLAERYKVNTPMLQSFINYCLLN [F24N] | 2.58 |
| QYLAERYKVNTPMLQSFINYCLLW [F24W] | 2.19 |
| QYLAERYKVNTPMLQSFINYCLLH [F24H] | 2.13 |
| QYLAERYKVNTPMLQSFINYCLLV [F24V] | 3.47 |
| QYLAERYKVNTPMLQSFINYCLLQ [F24Q] | 3.26 |
| QYLAERYKVNTPMLQSFINYCLLK [F24K] | 1.98 |
| QYLAERYKVNTPMLQSFINYCLLI [F24I] | 3.21 |
| QYLAERYKVNTPMLQSFINYCLLM [F24M] | 3.6 |
| QYLAERYKVNTPMLQSFINYCLLP [F24P] | 3.94 |
| QYLAERYKVNTPMLQSFINYCILF [L22I] | 3.04 |
| QYLAERYKVNTPMLQSFINYCFLF [L22F] | 3.25 |
| QYLAERYKVNTPMLQSFINYCSLF [L22S] | 2.21 |
| QYLAERYKVNTPMLQSFINYCVLF [L22V] | 3.01 |

| Variant | protein stability index |
| --- | --- |
| QYLAERYKVNTPMLQSFINYCPLF [L22P] | 1.82 |
| QYLAERYKVNTPMLQSFINYCYLF [L22Y] | 3.57 |
| QYLAERYKVNTPMLQSFINYCRLF [L22R] | 2.03 |
| QYLAERYKVNTPMLQSFINYCTLF [L22T] | 2.29 |
| QYLAERYKVNTPMLQSFINYCMLF [L22M] | 2.85 |
| QYLAERYKVNTPMLQSFINYCELF [L22E] | 3.47 |
| QYLAERYKVNTPMLQSFINYCCLF [L22C] | 1.89 |
| QYLAERYKVNTPMLQSFINYCNLF [L22N] | 2.29 |
| QYLAERYKVNTPMLQSFINYCQLF [L22Q] | 2.44 |
| QYLAERYKVNTPMLQSFINYCGLF [L22G] | 2.23 |
| QYLAERYKVNTPMLQSFINYCKLF [L22K] | 2.83 |
| QYLAERYKVNTPMLQSFINYCALF [L22A] | 1.57 |
| QYLAERYKVNTPMLQSFINYCHLF [L22H] | 3.33 |
| QYLAERYKVNTPMLQSFINYCDLF [L22D] | 2.05 |
| QYLAERYKVNTPMLQSFINYWLLF [C21W] | 2.44 |
| QYLAERYKVNTPMLQSFINYYLLF [C21Y] | 3.61 |
| QYLAERYKVNTPMLQSFINYRLLF [C21R] | 2.05 |
| QYLAERYKVNTPMLQSFINYMLLF [C21M] | 2.52 |
| QYLAERYKVNTPMLQSFINYSLLF [C21S] | 2.67 |
| QYLAERYKVNTPMLQSFINYVLLF [C21V] | 1.62 |
| QYLAERYKVNTPMLQSFINYTLLF [C21T] | 2.11 |
| QYLAERYKVNTPMLQSFINYPLLF [C21P] | 2.55 |

| Variant | protein stability index |
| --- | --- |
| QYLAERYKVNTPMLQSFINYNLLF [C21N] | 2.96 |
| QYLAERYKVNTPMLQSFINYQLLF [C21Q] | 2.3 |
| QYLAERYKVNTPMLQSFINYCLHF [L23H] | 1.81 |
| QYLAERYKVNTPMLQSFINYCLMF [L23M] | 2.7 |
| QYLAERYKVNTPMLQSFINYCLDF [L23D] | 2.96 |
| QYLAERYKVNTPMLQSFINYCLGF [L23G] | 1.91 |
| QYLAERYKVNTPMLQSFINYCLYF [L23Y] | 2.86 |
| QYLAERYKVNTPMLQSFINYCLNF [L23N] | 2.59 |
| QYLAERYKVNTPMLQSFINYCLIF [L23I] | 3.19 |
| QYLAERYKVNTPMLQSFINYCLCF [L23C] | 1.69 |
| QYLAERYKVNTPMLQSFINYCLKF [L23K] | 1.64 |
| QYLAERYKVNTPMLQSFINYCLSF [L23S] | 2.08 |
| QYLAERYKVNTPMLQSFINYCLQF [L23Q] | 1.3 |
| QYLAERYKVNTPMLQSFINYCLRF [L23R] | 2.46 |
| QYLAERYKVNTPMLQSFINYCLEF [L23E] | 1.78 |
| QYLAERYKVNTPMLQSFINYCLAF [L23A] | 2.27 |
| QYLAERYKVNTPMLQSFINYCLTF [L23T] | 1.94 |
| QYLAERYKVNTPMLQSFINYCLWF [L23W] | 2.47 |
| QYLAERYKVNTPMLQSFINYCLPF [L23P] | 1.63 |
| QYLAERYKVNTPMLQSFINYCLFF [L23F] | 2.96 |

Variants of: B2
Experiment: as above
Conditions: c terminus: a fixed tail appended

| Variant | protein stability index |
| --- | --- |
| YSLNTSSTHKRSSLRKVKLVRPPQ [T4N] | 3.31 |
| YSLDTSSTHKRSSLRKVKLVRPPQ [T4D] | 3.85 |
| YSLCTSSTHKRSSLRKVKLVRPPQ [T4C] | 2.48 |
| YSLFTSSTHKRSSLRKVKLVRPPQ [T4F] | 1.77 |
| YSLLTSSTHKRSSLRKVKLVRPPQ [T4L] | 3.26 |
| YSLRTSSTHKRSSLRKVKLVRPPQ [T4R] | 3.33 |
| YSLVTSSTHKRSSLRKVKLVRPPQ [T4V] | 2.7 |
| YSLWTSSTHKRSSLRKVKLVRPPQ [T4W] | 1.35 |
| YSLQTSSTHKRSSLRKVKLVRPPQ [T4Q] | 3.82 |
| YSLITSSTHKRSSLRKVKLVRPPQ [T4I] | 2.53 |
| YSLMTSSTHKRSSLRKVKLVRPPQ [T4M] | 2.55 |
| YSLPTSSTHKRSSLRKVKLVRPPQ [T4P] | 3.16 |
| YSLATSSTHKRSSLRKVKLVRPPQ [T4A] | 3.06 |
| YSLYTSSTHKRSSLRKVKLVRPPQ [T4Y] | 2.17 |
| YSLETSSTHKRSSLRKVKLVRPPQ [T4E] | 3.52 |
| YSLSTSSTHKRSSLRKVKLVRPPQ [T4S] | 3.38 |
| YSLHTSSTHKRSSLRKVKLVRPPQ [T4H] | 2.81 |
| YSLKTSSTHKRSSLRKVKLVRPPQ [T4K] | 3.33 |
| YSLGTSSTHKRSSLRKVKLVRPPQ [T4G] | 3.33 |
| YSLTTSFTHKRSSLRKVKLVRPPQ [S7F] | 2.27 |
| YSLTTSCTHKRSSLRKVKLVRPPQ [S7C] | 2.92 |
| YSLTTSETHKRSSLRKVKLVRPPQ [S7E] | 3.34 |
| YSLTTSATHKRSSLRKVKLVRPPQ [S7A] | 2.84 |
| YSLTTSGTHKRSSLRKVKLVRPPQ [S7G] | 3.23 |
| YSLTTSLTHKRSSLRKVKLVRPPQ [S7L] | 2.81 |
| YSLTTSHTHKRSSLRKVKLVRPPQ [S7H] | 3.07 |
| YSLTTSITHKRSSLRKVKLVRPPQ [S7I] | 2.6 |
| YSLTTSKTHKRSSLRKVKLVRPPQ [S7K] | 3.11 |
| YSLTTSDTHKRSSLRKVKLVRPPQ [S7D] | 2.94 |
| YSLTWSSTHKRSSLRKVKLVRPPQ [T5W] | 1.45 |
